Test results reported in IntAct's records for PubMed 25068414.

B1: Rac GTPase-activating protein 1 (Homo sapiens), Q9H0H5 (parent)
chain: MDTMMLNVRNLFEQLVRRVEILSEGNEVQFIQLAKDFEDFRKKWQRTDHELGKYKDLLMKAETERSALDVKLKHARNQVDVEIKRRQRAEADCEKLERQIQLIREMLMCDTSGSIQLSEEQKSALAFLNRGQPSSSNAGNKRLSTIDESGSILSDISFDKTDESLDWDSSLVKTFKLKKREKRRSTSRQFVDGPPGPVKKTRSIGSAVDQGNESIVAKTTVTVPNDGGPIEAVSTIETVPYWTRSRRKTGTLQPWNSDSTLNSRQLEPRTETDSVGTPQSNGGMRLHDFVSKTVIKPESCVPCGKRIKFGKLSLKCRDCRVVSHPECRDRCPLPCIPTLIGTPVKIGEGMLADFVSQTSPMIPSIVVHCVNEIEQRGLTETGLYRISGCDRTVKELKEKFLRVKTVPLLSKVDDIHAICSLLKDFLRNLKEPLLTFRLNRAFMEAAEITDEDNSIAAMYQAVGELPQANRDTLAFLMIHLQRVAQSPHTKMDVANLAKVFGPTIVAHAVPNPDPVTMLQDIKRQPKVVERLLSLPLEYWSQFMMVEQENIDPLHVIENSNAFSTPQTPDIKVSLLGPVTTPEHQLLKTPSSSSLSQRVRSTLTKNTPRFGSKSKSATNLGRQGNFFASPMLK
partner: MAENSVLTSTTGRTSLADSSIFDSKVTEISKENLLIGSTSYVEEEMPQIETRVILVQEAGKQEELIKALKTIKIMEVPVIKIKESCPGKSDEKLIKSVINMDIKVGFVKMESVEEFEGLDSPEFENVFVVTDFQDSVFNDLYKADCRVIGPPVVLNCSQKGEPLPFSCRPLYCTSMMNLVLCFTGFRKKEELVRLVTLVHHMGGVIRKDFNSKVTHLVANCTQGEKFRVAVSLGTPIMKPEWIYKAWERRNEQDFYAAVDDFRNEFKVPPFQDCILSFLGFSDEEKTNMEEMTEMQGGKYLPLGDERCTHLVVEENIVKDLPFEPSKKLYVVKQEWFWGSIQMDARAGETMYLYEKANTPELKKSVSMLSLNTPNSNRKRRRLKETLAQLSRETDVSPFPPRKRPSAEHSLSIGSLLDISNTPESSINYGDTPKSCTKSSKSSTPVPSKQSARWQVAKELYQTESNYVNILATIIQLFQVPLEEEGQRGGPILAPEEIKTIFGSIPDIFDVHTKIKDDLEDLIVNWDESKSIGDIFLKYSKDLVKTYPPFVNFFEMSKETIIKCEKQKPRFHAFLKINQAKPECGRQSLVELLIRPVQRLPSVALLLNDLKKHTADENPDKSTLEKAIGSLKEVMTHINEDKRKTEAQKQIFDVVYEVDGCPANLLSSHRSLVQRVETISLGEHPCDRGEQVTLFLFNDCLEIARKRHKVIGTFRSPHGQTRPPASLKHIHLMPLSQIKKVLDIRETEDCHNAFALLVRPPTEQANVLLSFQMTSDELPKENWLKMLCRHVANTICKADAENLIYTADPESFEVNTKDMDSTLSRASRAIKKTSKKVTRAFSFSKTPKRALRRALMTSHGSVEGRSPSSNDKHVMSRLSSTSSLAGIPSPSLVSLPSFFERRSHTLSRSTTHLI
B2: Protein ECT2 (Homo sapiens), Q9H8V3 (parent)
chain: B1 partner
partner: B1 chain

Variants of: B1
Conditions: with ect2_human ECT2, Q9H8V3

| Variant | effect of a mutation on the interaction |
| --- | --- |
| W167A | decreasing interaction |

Variants of: B2
Conditions: with rgap1_human RACGAP1, Q9H0H5

| Variant | effect of a mutation on the interaction |
| --- | --- |
| V153A | decreasing interaction |

Variants of: B2
Conditions: with rgap1_human RACGAP1, Q9H0H5
Remark: another data set of the same source

| Variant | effect of a mutation on the interaction |
| --- | --- |
| V153A;L195M | disrupting interaction |

Variants of: B2
Conditions: with rgap1_human RACGAP1, Q9H0H5
Remark: another data set of the same source

| Variant | effect of a mutation on the interaction |
| --- | --- |
| L195M | disrupting interaction |

Variants of: B2
Conditions: with rgap1_human RACGAP1, Q9H0H5
Remark: another data set of the same source

| Variant | effect of a mutation on the interaction |
| --- | --- |
| P163E | decreasing interaction |
